Reference: US20240368263A1 (PROMETHEUS BIOSCIENCES, published 2024)

T1: Fas/TNFSF6 (R&D Systems, cat. no. 126-FL/CF) (UniProt P48023 134-281)
T1 sequence (looked up): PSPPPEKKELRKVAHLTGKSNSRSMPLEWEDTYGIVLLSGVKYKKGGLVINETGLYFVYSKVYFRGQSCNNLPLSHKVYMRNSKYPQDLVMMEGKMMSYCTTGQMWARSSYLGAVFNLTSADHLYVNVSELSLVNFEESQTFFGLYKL

T2: membrane-associated human TL1A on transfected HEK293 cells (human, UniProt O95150 1-251)
T2 construct: whole, on cells
T2 sequence (looked up): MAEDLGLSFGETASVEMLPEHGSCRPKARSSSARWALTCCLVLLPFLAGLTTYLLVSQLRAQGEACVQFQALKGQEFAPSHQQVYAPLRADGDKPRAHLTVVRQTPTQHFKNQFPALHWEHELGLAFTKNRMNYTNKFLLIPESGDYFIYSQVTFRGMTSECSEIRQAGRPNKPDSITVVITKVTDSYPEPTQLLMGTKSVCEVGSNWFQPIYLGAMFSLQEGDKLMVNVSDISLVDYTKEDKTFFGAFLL

T3: human TL1A (Fitzgerald, Prod. #30R-AT070) (human, UniProt O95150 72-251, limits assumed, biotinylated with EZ-Link Sulfo-NHS-LC-Biotin where used as soluble antigen)
T3 construct: also called TNFSF15; biotinylated human TL1A
T3 sequence (looked up): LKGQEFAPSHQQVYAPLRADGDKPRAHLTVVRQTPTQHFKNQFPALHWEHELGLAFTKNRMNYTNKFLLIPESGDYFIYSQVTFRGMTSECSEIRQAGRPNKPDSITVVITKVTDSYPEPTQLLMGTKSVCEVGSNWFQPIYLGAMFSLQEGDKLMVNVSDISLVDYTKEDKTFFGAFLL


Key:
[1] = target: TRAIL/TNFSF10 (R&D Systems, cat. no. 375-TL/CF) (UniProt P50591 114-281); assay: ELISA, antigen coated at 1 µg/ml, Fab titrated
Chain of TRAIL/TNFSF10 (R&D Systems, cat. no. 375-TL/CF) (P50591 114-281 limits assumed): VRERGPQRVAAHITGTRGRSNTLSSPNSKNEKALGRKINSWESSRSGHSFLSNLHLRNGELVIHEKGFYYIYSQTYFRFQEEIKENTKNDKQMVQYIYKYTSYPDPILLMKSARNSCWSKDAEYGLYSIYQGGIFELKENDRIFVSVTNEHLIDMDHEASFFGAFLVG
Experimental: (§1) Next, all the Fab variants were characterized for their selectivity for human TL1A relative to other TNFSF members TRAIL, LIGHT and Fas. […] The plate was washed 3 times with PBS-T and blocked with 100 μl of 1% BSA/PBS. The block was discarded and the Fab variants or control antibodies (Fas/TNFSF6, R&D Systems, cat. no. AF126; TRAIL/TNFSF10, R&D Systems, cat. no. AF375; LIGHT/TNFSF14, R&D Systems, cat. no. AF664) were titrated in 50 μl 1% BSA/PBS and incubated for 1 h at 25° C. The plate was washed 3 times with PBS-T and secondary HRP-conjugated antibody (diluted 5,000-fold in 1% BSA/PBS) was added for 1 h at 25° C. The plate was washed 3 times with PBS-T and developed.

[2] = target: LIGHT/TNFSF14 (R&D Systems, cat. no. 664-LI/CF) (UniProt O43557 74-240); assay: ELISA, antigen coated at 1 µg/ml, Fab titrated
Chain of LIGHT/TNFSF14 (R&D Systems, cat. no. 664-LI/CF) (O43557 74-240 limits assumed): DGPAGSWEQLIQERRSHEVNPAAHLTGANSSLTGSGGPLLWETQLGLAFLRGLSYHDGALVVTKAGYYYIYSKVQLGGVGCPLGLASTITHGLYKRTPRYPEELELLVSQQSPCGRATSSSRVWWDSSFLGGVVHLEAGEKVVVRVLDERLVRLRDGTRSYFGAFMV
Experimental: as §1

[3] = target: T1, Fas/TNFSF6 (R&D Systems, cat. no. …); assay: ELISA, antigen coated at 1 µg/ml, Fab titrated
Experimental: as §1

[4] = target: T2, membrane-associated human TL1A on …; assay: flow cytometry, HEK293 cells transfected with human TL1A
Experimental: All the Fab variants were tested for binding to membrane-associated human TL1A. For these studies a HEK293 cell line that had been transfected with human TL1A was used. The 293 cells expressing membrane bound human TL1A were maintained in DMEM containing L-glutamine, glucose, sodium pyruvate, and phenol red (ThermoFisher cat #11995-065) plus 10% fetal bovine serum, 1X penicillin-streptomycin (Fisher cat #15140122) and 2 μg/ml puromycin (Gibco cat #A11138-03) in a 37° C. incubator with 5% CO2. Three days prior to the assay, a T-75 flask was seeded with 3×10⁶ cells so that the flask was 90-95% confluent on the day of the assay. The media was aspirated and the cell monolayer was gently washed with 5 ml PBS. Adherent cells were removed by repeatedly pipetting 10 ml ice cold 1% BSA/PBS against the monolayer. The cells were counted and 5×10⁵ were aliquoted for each sample to be analyzed. The cells were collected by centrifuging at 300× g at 4° C. for 5 minutes and the wash was discarded. The cells were resuspended in 100 μl Fab or IgG diluted in 1% BSA/PBS and placed on ice for 30 min. Next, the cells were washed with 1 ml 1% BSA/PBS and collected by centrifuging at 300× g at 4° C. for 5 min. The wash was discarded and 100 μl secondary goat F (ab′) 2 anti-human kappa FITC (Southern Biotech cat #2062-02) or goat F (ab′) 2 anti-human IgG PE (Southern Biotech cat #2043-09) conjugate, diluted 1:200 in BSA/PBS was added. Cells were placed on ice for 30 min. Finally, the cells were washed with 1 ml BSA/PBS, collected by centrifuging at 300× g at 4° C. for 5 min. The wash was removed and the cells were resuspended in 500 μl 1% BSA/PBS. One drop of Sytox AADvanced ReadyFlow Reagent (ThermoFisher cat #R37173) was added per sample and the samples were analyzed on the Attune NXT Flow Cytometer (ThermoFisher).

[5] = target: T3, human TL1A (Fitzgerald, Prod. …); assay: two ELISA formats: Fab on coated TL1A; captured Fab with biotinylated TL1A
Experimental: Fabs with the CDRs shown in Tables 19 to 22 were tested for binding to human TL1A in multiple formats. Next, uniform (saturating) quantities of soluble Fab variants were captured on the surface of an ELISA plate and soluble, biotinylated human TL1A was titrated as shown in FIGS. 10 to 13.

Binder | binding result [1] | binding result [2] | binding result [3] | binding result [4] | binding result [5]
Clone 3-17L Fab (Fab, V domains shown, Fab) VH: QVQLVQSGAEVKKPGASVKVSCKASGFDIQDTYMHWVRQAPGQGLEWMGRIDPASGHLKYDPKFQGRVTITRDTSASTVYMELSSLRSEDTAVYYCARSGGLPDMWGQGTTVTVSS VL: EIVLTQSPGTLSLSPGERATLSCRASSSVSYMYWYQQKPGQAPRLLIYATSNLASGIPDRFSGSGSGTDFTLTISRLEPEDFAVYYCQQWQGNPRTFGGGTKLEIK | no binding | no binding | no binding | binds | binds
Clone E1 Fab (Fab, V domains shown, Fab) VH: QVQLVQSGAEVKKPGASVKVSCKASGFDIQDTYMHWVRQAPGQGLEWMGRIEPASGHLKYDPKFQERVTMTRDTSTSTVYMELSSLRSEDTAVYYCARSGGLPDKWGQGTTVTVSS VL: EIVLTQSPGTLSLSPGERATLSCGASSSVSYMYWYQQKPGQAPRLLIYATSNLASGIPDRFSGSGSGTDFTLTISRLEPEDFAVYYCQQWEGNPRTFGGGTKLEIK | no binding | no binding | no binding | binds | binds
Clone A1 Fab (Fab, V domains shown, Fab) VH: QVQLVQSGAEVKKPGASVKVSCKASGFDIQDTYMHWVRQAPGQGLEWMGRIDPASGHLKYDPKFQNRVTMTRDTSTSTVYMELSSLRSEDTAVYYCARSGGLPDKWGQGTTVTVSS VL: EIVLTQSPGTLSLSPGERATLSCGASSSVSYMYWYQQKPGQAPRLLIYATSNLASGIPDRFSGSGSGTDFTLTISRLEPEDFAVYYCQQWEGNPRTFGGGTKLEIK | no binding | no binding | no binding | binds | binds
Clone H2-2 Fab (Fab, V domains shown, Fab; also called Clone 112-2) VH: QVQLVQSGAEVKKPGASVKVSCKASGFDIQDTYMHWVRQAPGQGLEWMGRIDPASGHSKYDPKFQVRATITTDTSASTAYLQLSSLRSEDTAVYYCARSGGLPDFWGQGTTVTVSS VL: EIVLTQSPGTLSLSPGERATLSCRASSSVSYMYWYQQKPGQAPRLLIYATSNLASGIPDRFSGSGSGTDFTLTISRLEPEDFAVYYCQQWSGNPRTFGGGTKLEIK | no binding | no binding | no binding | binds | binds
Clone H3-1 Fab (Fab, V domains shown, Fab) VH: QVQLVQSGAEVKKPGASVKVSCKASGFDIQDTYMHWVRQAPGQGLEWMGRIDPASGHTKYDPKFQGRATITTDTSASTAYLQLSSLRSEDTAVYYCARSGGLPDLWGQGTTVTVSS VL: EIVLTQSPGTLSLSPGERATLSCRASSSVSYMYWYQQKPGQAPRLLIYATSNLASGIPDRFSGSGSGTDFTLTISRLEPEDFAVYYCQQWSGNPRTFGGGTKLEIK | no binding | no binding | no binding | binds | binds
Clone 17L-1 Fab (Fab, V domains shown, Fab) VH: QVQLVQSGAEVKKPGASVKVSCKASGFDIQDTYMHWVRQAPGQGLEWMGRIDPASGHLKYDPKFQRRVTMTRDTSTSTVYMELSSLRSEDTAVYYCARSGGLPDMWGQGTTVTVSS VL: EIVLTQSPGTLSLSPGERATLSCRASSSVSYMYWYQQKPGQAPRLLIYATSNLASGIPDRFSGSGSGTDFTLTISRLEPEDFAVYYCQQWQGNPRTFGGGTKLEIK | no binding | no binding | no binding | binds | binds
Clone L3-13 Fab (Fab, V domains shown, Fab) VH: QVQLVQSGAEVKKPGASVKVSCKASGFDIQDTYMHWVRQAPGQGLEWMGRIDPASGHTKYDPKFQGRATITTDTSASTAYLQLSSLRSEDTAVYYCARSGGLPDFWGQGTTVTVSS VL: EIVLTQSPGTLSLSPGERATLSCRASSSVSYMYWYQQKPGQAPRLLIYATSNLASGIPDRFSGSGSGTDFTLTISRLEPEDFAVYYCQQWKGNPRTFGGGTKLEIK | no binding | no binding | no binding | binds | binds
Clone 16 Fab (Fab, V domains shown, Fab; also called Clone 16L) VH: QVQLVQSGAEVKKPGASVKVSCKASGFDIQDTYMHWVRQAPGQGLEWMGRIDPASGHVKIDPKFQVRVTMTRDTSTSTVYMELSSLRSEDTAVYYCARSGGLPDMWGQGTTVTVSS VL: EIVLTQSPGTLSLSPGERATLSCRASSSVSYMYWYQQKPGQAPRLLIYATSNLASGIPDRFSGSGSGTDFTLTISRLEPEDFAVYYCQQWQGNPRTFGGGTKLEIK | no binding | no binding | no binding | binds | binds
Clone H2-5 Fab (Fab, V domains shown, Fab; also called Clone 112-5) VH: QVQLVQSGAEVKKPGASVKVSCKASGFDIQDTYMHWVRQAPGQGLEWMGRIDPASGHYKYDPKFQVRATITTDTSASTAYLQLSSLRSEDTAVYYCARSGGLPDFWGQGTTVTVSS VL: EIVLTQSPGTLSLSPGERATLSCRASSSVSYMYWYQQKPGQAPRLLIYATSNLASGIPDRFSGSGSGTDFTLTISRLEPEDFAVYYCQQWSGNPRTFGGGTKLEIK | no binding | no binding | no binding | binds | binds
Clone 3-17L V-A Fab (Fab, V domains shown, Fab) VH: QVQLVQSGAEVKKPGASVKVSCKASGFDIQDTYMHWVRQAPGQGLEWMGRIDPASGHLKYDPKFQGRVTITRDTSASTAYMELSSLRSEDTAVYYCARSGGLPDMWGQGTTVTVSS VL: EIVLTQSPGTLSLSPGERATLSCRASSSVSYMYWYQQKPGQAPRLLIYATSNLASGIPDRFSGSGSGTDFTLTISRLEPEDFAVYYCQQWQGNPRTFGGGTKLEIK | no binding | no binding | no binding | binds | binds
